Data on nine sequences can be found in PMC6456224.

Data set [1] has as its system HMG-box Pf (HMG-box domain of HMGB1) (Plasmodium falciparum). As to the kind of experiment: MST. The settings on record: MST: 50 nM aptamer with probeFAM (4:1), PBS, room temperature, protein 0.1 nM-2 uM, stopped-flow: SELEX buffer (100 mM NaCl, 1.5 mM KCl, 5 mM MgCl2, 6 mM …).
In data set [2] the target is HMG-box Hs (HMG-box domain of human HMGB1) (Homo sapiens) (UniProt P09429). As to the kind of experiment: MST. The settings on record: MST: 50 nM aptamer with probeFAM (4:1), PBS, room temperature, protein 0.1 nM-2 uM; stopped-flow: SELEX buffer (100 mM NaCl, 1.5 mM KCl, 5 mM MgCl2, 6 mM …).
UniProt P09429, sequence (P09429 whole entry, the tested form may be a part): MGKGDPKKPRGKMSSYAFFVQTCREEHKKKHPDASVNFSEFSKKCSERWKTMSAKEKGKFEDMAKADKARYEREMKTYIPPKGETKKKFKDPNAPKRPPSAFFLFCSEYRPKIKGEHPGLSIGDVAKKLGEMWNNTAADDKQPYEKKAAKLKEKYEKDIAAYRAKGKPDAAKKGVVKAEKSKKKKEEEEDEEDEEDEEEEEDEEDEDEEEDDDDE

As to “TAGGGAAGAGAAGGACATATGATCGCGTGGGTTTGGCTCCGGGCCTGGCGGATGCACGTATAGTTGACTAGTACATGACCACTTGA [PfR6 (PfR6FAM)]”, the dissociation constant (Kd) in data set [1] turned out to be 65 nM; in data set [1] (separate S4 experiment), 64 nM.

In data set [1], “TAGGGAAGAGAAGGACATATGATAGATGCAAAGGACTGCTCAGGCTTGCGATGGCAGCTTCATTTGACTAGTACATGACCACTTGA [PfR2]” registered a dissociation constant Kd of 778 nM.

As to “TAGGGAAGAGAAGGACATATGATGAGAAGGACTGCTTAGGCTTGCGATGTGAAATCTGTAATCTTGACTAGTACATGACCACTTGA [PfR1]”, in data set [1], the dissociation constant Kd was 175 nM.

Consider “TAGGGAAGAGAAGGACATATGATGCCGACTACGTCAACCTGGGTCTGCTCGGGATTGCGGATGTTGACTAGTACATGACCACTTGA [PfE1]”, for which, in data set [1], the dissociation constant (Kd) stood at 81 nM.

Turning to “TAGGGAAGAGAAGGACATATGATAGTTTACACCAAGGACTGCTTAGGATTGCGTTAGGGTATTTTGACTAGTACATGACCACTTGA [PfE3]”, the Kd in data set [1] came out at 815 nM; in data set [1] (separate S4 experiment), 740 nM. The same sequence registered a fold lower affinity than HMG-box Pf (fold lower affinity than HMG-box Pf) in data set [2] of 10.

The sequence “TAGGGAAGAGAAGGACATATGATCACTAGGTCTGCTTAGGATTGCGTAAGTGAAAGTCATTTATTGACTAGTACATGACCACTTGA [PfR3]” gave a dissociation constant (Kd) in data set [1] of 1930 nM.

Regarding “TAGGGAAGAGAAGGACATATGATACCGACTACGTCAACCTGGGTCTGCTCGGGATTGCGGATGTTGACTAGTACATGACCACTTGA [PfR4]”, the Kd in data set [1] was 41 nM.

On to “TAGGGAAGAGAAGGACATATGATACCGACTACGTCAACTTGGGTCTGCTCGGGATTGCGGATGTTGACTAGTACATGACCACTTGA [PfE2]”, for which the Kd in data set [1] amounted to 55 nM.

In data set [1], “TAGGGAAGAGAAGGACATATGATAGCCGTGGATTGCAAAGGGCTGCTGTGGCTTAGTTGAATGTTGACTAGTACATGACCACTTGA [PfR5]” registered a Kd of 560 nM.
